Reference: PMC11897886 (Nucleic Acids Research, 2024)

T1: CBP-Upf1-HD (S. cerevisiae, UniProt P30771 221-851)
T1 sequence: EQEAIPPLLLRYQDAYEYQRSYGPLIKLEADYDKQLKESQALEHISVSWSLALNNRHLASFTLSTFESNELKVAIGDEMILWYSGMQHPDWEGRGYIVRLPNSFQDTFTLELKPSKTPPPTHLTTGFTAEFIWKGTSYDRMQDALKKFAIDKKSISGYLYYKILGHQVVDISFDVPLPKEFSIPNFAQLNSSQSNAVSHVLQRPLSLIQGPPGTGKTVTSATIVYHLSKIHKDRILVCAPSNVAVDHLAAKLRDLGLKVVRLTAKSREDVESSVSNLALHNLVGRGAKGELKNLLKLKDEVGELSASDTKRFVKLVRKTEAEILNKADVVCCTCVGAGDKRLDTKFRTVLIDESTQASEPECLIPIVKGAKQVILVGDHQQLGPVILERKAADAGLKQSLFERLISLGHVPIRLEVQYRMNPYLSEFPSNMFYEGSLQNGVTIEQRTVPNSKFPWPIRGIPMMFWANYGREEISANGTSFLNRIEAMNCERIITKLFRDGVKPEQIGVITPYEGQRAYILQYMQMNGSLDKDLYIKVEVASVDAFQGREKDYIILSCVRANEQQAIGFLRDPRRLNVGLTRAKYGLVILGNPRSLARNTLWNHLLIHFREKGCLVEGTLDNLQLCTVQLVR

T2: CBP-Upf1-CH-HD (S. cerevisiae, UniProt P30771 54-851)
T2 sequence: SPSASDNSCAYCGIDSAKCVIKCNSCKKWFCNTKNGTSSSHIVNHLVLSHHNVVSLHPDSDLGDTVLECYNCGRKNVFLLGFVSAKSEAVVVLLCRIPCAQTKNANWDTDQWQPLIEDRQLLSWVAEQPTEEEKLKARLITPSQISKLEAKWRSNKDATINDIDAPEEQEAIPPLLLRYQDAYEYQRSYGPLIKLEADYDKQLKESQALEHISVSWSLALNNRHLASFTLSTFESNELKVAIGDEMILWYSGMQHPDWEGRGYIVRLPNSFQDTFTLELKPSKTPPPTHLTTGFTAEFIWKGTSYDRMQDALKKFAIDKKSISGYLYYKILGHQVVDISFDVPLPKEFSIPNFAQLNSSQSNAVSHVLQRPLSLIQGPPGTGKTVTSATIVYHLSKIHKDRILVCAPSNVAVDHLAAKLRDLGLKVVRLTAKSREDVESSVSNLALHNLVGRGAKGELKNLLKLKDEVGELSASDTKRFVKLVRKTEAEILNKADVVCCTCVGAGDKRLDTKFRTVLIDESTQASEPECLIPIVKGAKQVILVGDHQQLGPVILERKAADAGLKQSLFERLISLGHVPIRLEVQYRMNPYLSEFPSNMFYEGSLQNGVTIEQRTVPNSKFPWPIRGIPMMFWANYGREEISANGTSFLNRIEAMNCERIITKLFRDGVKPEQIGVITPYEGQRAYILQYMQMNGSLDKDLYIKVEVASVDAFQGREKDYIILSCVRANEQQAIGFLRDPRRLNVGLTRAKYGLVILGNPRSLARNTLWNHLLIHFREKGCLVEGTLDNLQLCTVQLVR

T3: CBP-Upf1-HD-Ct (S. cerevisiae, UniProt P30771 221-971)
T3 sequence: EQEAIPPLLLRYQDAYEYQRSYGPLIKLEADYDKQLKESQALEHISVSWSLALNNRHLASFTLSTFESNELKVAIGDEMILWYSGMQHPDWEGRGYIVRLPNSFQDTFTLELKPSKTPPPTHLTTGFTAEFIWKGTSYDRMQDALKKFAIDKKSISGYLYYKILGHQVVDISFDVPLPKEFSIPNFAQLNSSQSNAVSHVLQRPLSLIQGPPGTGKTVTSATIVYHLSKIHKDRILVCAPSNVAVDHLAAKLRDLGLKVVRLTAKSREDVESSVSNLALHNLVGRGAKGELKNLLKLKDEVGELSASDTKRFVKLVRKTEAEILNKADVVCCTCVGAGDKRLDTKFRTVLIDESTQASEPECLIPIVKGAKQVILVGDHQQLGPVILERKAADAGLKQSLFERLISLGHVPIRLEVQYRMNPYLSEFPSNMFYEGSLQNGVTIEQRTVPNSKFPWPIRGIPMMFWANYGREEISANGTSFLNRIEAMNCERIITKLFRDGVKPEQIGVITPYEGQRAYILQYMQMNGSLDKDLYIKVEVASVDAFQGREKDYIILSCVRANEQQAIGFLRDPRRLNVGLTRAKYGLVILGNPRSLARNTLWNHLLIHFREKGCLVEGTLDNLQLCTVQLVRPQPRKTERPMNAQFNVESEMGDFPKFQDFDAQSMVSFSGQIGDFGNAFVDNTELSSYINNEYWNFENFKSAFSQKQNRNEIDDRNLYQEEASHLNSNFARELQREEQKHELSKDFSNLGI

T4: CBP-Upf1-FL (S.c. Upf1 full-length) (S. cerevisiae, UniProt P30771 1-971)
T4 sequence: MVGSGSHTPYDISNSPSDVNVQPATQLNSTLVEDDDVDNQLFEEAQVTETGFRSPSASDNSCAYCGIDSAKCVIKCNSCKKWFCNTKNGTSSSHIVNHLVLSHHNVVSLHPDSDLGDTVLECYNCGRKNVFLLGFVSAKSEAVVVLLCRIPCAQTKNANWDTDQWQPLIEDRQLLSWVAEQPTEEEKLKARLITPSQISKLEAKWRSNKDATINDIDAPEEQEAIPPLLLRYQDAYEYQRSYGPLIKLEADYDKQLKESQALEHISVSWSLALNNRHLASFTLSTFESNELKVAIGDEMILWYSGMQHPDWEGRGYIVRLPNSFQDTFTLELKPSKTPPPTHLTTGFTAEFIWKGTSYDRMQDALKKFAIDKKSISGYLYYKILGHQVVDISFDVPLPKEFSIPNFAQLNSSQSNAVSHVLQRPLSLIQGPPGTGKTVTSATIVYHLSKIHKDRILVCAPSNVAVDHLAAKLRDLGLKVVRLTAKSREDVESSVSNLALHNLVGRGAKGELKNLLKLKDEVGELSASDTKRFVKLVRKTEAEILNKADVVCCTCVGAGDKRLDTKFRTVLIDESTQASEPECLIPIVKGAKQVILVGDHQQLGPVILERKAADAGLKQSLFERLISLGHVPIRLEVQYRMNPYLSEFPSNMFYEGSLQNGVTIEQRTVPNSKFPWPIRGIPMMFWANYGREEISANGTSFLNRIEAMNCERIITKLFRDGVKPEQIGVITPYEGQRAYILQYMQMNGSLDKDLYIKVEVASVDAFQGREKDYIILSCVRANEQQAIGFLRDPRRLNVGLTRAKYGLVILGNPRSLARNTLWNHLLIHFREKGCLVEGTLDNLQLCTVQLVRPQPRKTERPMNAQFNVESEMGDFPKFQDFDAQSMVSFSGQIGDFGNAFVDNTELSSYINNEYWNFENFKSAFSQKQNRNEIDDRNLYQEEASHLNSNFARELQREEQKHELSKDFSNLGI

T5: GST-Ebs1 (aa 1-591) (S. cerevisiae, UniProt Q03466 1-591)
T5 sequence: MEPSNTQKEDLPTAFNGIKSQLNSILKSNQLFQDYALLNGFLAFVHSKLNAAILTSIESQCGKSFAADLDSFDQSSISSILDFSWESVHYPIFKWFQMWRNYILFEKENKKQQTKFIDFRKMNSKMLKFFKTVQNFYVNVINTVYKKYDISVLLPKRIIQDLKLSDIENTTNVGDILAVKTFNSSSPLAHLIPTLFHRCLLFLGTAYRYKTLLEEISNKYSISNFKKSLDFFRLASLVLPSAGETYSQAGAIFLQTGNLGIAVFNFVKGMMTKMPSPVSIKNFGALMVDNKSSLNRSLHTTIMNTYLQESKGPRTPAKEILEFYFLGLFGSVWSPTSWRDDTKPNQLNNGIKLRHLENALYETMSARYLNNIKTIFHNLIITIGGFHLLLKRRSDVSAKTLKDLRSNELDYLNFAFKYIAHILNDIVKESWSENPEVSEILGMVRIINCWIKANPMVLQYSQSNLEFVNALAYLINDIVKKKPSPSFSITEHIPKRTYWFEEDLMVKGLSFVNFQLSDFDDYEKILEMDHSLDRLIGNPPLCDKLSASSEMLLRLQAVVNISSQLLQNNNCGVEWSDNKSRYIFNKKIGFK

B1: TS-Nmd4-His (full-length Nmd4, aa 1-218) (natural protein)
chain: MTQYNFIIDASAFEKGLGNIKRWCSDCTEAVTLNFYIPTFTLNELDFLQQRRKSFAARESLKFIDRLDDSKFANLKVFIEFPEVLDIILWSDVMEHNDSSGKINIAKLPKRLKNLLKSCIYKCYLEGNEGLHWFLISEDPQIREMAMQCNIPSCSIVDVDSILSKDMNDKSFRESEKFNNMMLKNGTKEESENGREIIRTNFNKTVYASRGTGELWSP
B2: CBP-Upf1-Ct (domain or fragment)
chain: PQPRKTERPMNAQFNVESEMGDFPKFQDFDAQSMVSFSGQIGDFGNAFVDNTELSSYINNEYWNFENFKSAFSQKQNRNEIDDRNLYQEEASHLNSNFARELQREEQKHELSKDFSNLGI
B3: GST-Dcp1/Dcp2-S heterodimer (complex)
chain 1: MTGAATAAENSATQLEFYRKALNFNVIGRYDPKIKQLLFHTPHASLYKWDFKKDEWNKLEYQGVLAIYLRDVSQNTNLLPVSPQEVDIFDSQNGSNNIQVNNGSDNSNRNSSGNGNSYKSNDSLTYNCGKTLSGKDIYNYGLIILNRINPDNFSMGIVPNSVVNKRKVFNAEEDTLNPLECMGVEVKDELVIIKNLKHEVYGIWIHTVSDRQNIYELIKYLLENEPKDSFA
chain 2: MSLPLRHALENVTSVDRILEDLLVRFIINCPNEDLSSVERELFHFEEASWFYTDFIKLMNPTLPSLKIKSFAQLIIKLCPLVWKWDIRVDEALQQFSKYKKSIPVRGAAIFNENLSKILLVQGTESDSWSFPRGKISKDENDIDCCIREVKEEIGFDLTDYIDDNQFIERNIQGKNYKIFLISGVSEVFNFKPQVRNEIDKIEWFDFKKISKTMYKSNIKYYLINSMMRPLSMWLRHQRQIKNEDQLKSYAEEQLKLLLGITKEEQIDPGRELLNMLHTAVQANSNNNAVSNGQVPSSQELQHLKEQSGEHNQQK

Assays:
[1] = molecular target: CBP-Upf1-CH-His (S. cerevisiae); experiment: SDS-PAGE band identified by Western blotting and mass spectrometry
[2] = molecular target: FITC-labeled Dcp2-UBM1 peptide (aa 456-479) (S. cerevisiae) (UniProt P53550); experiment: fluorescence polarisation
Chain of FITC-labeled Dcp2-UBM1 peptide (aa 456-479) (S. cerevisiae) (P53550 456-479): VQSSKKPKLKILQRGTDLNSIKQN

[3] = molecular target: FITC-labeled Dcp2-UBM2 peptide (aa 694-718) (S. cerevisiae) (UniProt P53550); experiment: fluorescence polarisation
Chain of FITC-labeled Dcp2-UBM2 peptide (aa 694-718) (S. cerevisiae) (P53550 694-718): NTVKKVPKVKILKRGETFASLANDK

CBP-Upf1-HD = molecular target: T1, CBP-Upf1-HD; experiment: pull-down
CBP-Upf1-CH-HD = molecular target: T2, CBP-Upf1-CH-HD; experiment: pull-down
CBP-Upf1-HD-Ct = molecular target: T3, CBP-Upf1-HD-Ct; experiment: pull-down
[4] = molecular target: T4, CBP-Upf1-FL (S.c. Upf1 full-length); experiment: pull-down
GST-Ebs1 (aa 1-591) = molecular target: T5, GST-Ebs1 (aa 1-591); experiment: pull-down

Molecule	stoichiometry N [1]	Kd [2] [µM]	Kd [3] [µM]	binding result (CBP-Upf1-HD)	binding result (CBP-Upf1-CH-HD)	binding result (CBP-Upf1-HD-Ct)	binding result [4]	binding result (GST-Ebs1 (aa 1-591))
CBP-Upf1-CH-His (domain or fragment)	2	60.1	25.1	–	–	–	–	–
B1	–	–	–	binds	binds	binds	binds	–
B2	–	–	–	–	–	–	–	binds
B3	–	–	–	binds	binds	binds	binds	–
